# Read-outs that look alike come from different tables or passages of the source. Where no end group is shown, it is not given here.
# B1: E. coli PNPase (enzyme, UniProt P05055 1-711, looked up)
# chain: MLNPIVRKFQYGQHTVTLETGMMARQATAAVMVSMDDTAVFVTVVGQKKAKPGQDFFPLTVNYQERTYAAGRIPGSFFRREGRPSEGETLIARLIDRPIRPLFPEGFVNEVQVIATVVSVNPQVNPDIVAMIGASAALSLSGIPFNGPIGAARVGYINDQYVLNPTQDELKESKLDLVVAGTEAAVLMVESEAQLLSEDQMLGAVVFGHEQQQVVIQNINELVKEAGKPRWDWQPEPVNEALNARVAALAEARLSDAYRITDKQERYAQVDVIKSETIATLLAEDETLDENELGEILHAIEKNVVRSRVLAGEPRIDGREKDMIRGLDVRTGVLPRTHGSALFTRGETQALVTATLGTARDAQVLDELMGERTDTFLFHYNFPPYSVGETGMVGSPKRREIGHGRLAKRGVLAVMPDMDKFPYTVRVVSEITESNGSSSMASVCGASLALMDAGVPIKAAVAGIAMGLVKEGDNYVVLSDILGDEDHLGDMDFKVAGSRDGISALQMDIKIEGITKEIMQVALNQAKGARLHILGVMEQAINAPRGDISEFAPRIHTIKINPDKIKDVIGKGGSVIRALTEETGTTIEIEDDGTVKIAATDGEKAKHAIRRIEEITAEIEVGRVYTGKVTRIVDFGAFVAIGGGKEGLVHISQIADKRVEKVTDYLQMGQEVPVKVLEVDRQGRIRLSIKEATEQSQPAAAPEAPAAEQGE
# notes: polynucleotide phosphorylase (PNPase), E. coli; also called polynucleotide phosphorylase; full-length PNPase; source: E. coli BL21(DE3), purified (ammonium sulfate, Q, butyl-Sepharose, SEC)
# Tests used:
# [1] = target: T1, PNPase (Escherichia coli, UniProt P05055); type: binding, E. coli; details: SPR, 25°C, immobilized PNPase C-His, HEPES pH 7.2, contact 60 s
# T1 construct: made in house; host or cells: E. coli Evo21(DE3)
# Description: Briefly, at the N-terminal of the construct, there is an Hisx6 affinity tag that will be used for affinity purification. Following the Hisx6 tag there is an maltose-binding protein (MBP) tag with a TEV cleavage site to maintain solubility of the peptides. Following the MBP tag the gene encoding the peptide is inserted, and is then followed by intein, a self-cleavable tag, followed by a choline-binding domain, which can be used for an extra step of affinity purification. […] After expression, cells were harvested, resuspended in Lysis Buffer 2 (20 mM Tris–HCl, pH 8.0, 80 mM KCl, 300 mM NaCl, 20 mM Imidazole, 0.5 mM TCEP), and lysed with a cell disruptor (Emulsiflex, Avestin). […] After subsequent rounds of washing with Ni Equilibration Buffer supplemented with, respectively, 0.1% Triton-X, 1 M NaCl, and a final wash in Ni Equilibration Buffer, samples were eluted with Ni Elution Buffer (20 mM Tris–HCl, pH 8.0, 300 mM NaCl, 300 mM imidazole, 0.5 mM TCEP). Enriched fractions were then supplemented with 100 mM β-mercaptoethanol to catalyse intein self-cleavage overnight at room temperature. Treated samples were filtered and loaded on an amylose gravity flow column, equilibrated with Amy Equilibration Buffer (20 mM Tris–HCl, pH 8.0, 20 mM NaCl, 20 mM imidazole, 2 mM β-mercaptoethanol) and after washing, His-tagged TEV protease was applied to the resin and incubated at 4°C for 2 h.
# PNPase carrying a C-terminal Hisx6 tag was expressed from pExp-cis-Ec_PNP-CHis vector in E. coli Evo21(DE3) cells, induced with 0.4 mM IPTG, at 18°C overnight. After expression, cells were harvested and resuspended in Lysis Buffer 2 (20 mM Tris–HCl, pH 8.0, 80 mM KCl, 300 mM NaCl, 20 mM imidazole, 0.5 mM TCEP), and lysed with a cell disruptor (Emulsiflex, Avestin). […] After subsequent rounds of washing with equilibration buffer supplemented with 0.1% Triton-X, or 1 M NaCl, the sample was eluted with Ni PNPCHis Elution Buffer (20 mM NaH2PO4, pH 8.0, 300 mM NaCl, 300 mM KCl, 5 mM MgCl2, 300 mM imidazole, pH 7.5, 10 mM β-mercaptoethanol). […] Fractions containing PNPase were run through a HiPrep™ 26/10 Desalting Column (GE Healthcare) and buffer exchanged to Q PNPCHis A (20 mM NaH2PO4, pH 8.0, 30 mM NaCl, 10% glycerol, 0.5 mM TCEP).
# Interaction measurements were made using a Biacore T200 instrument (GE) at 25°C. PNPase with a 6xHisTag at the CTD was immobilized on a Series S Sensor Chip NTA (Cytiva) to provide a signal of 5 response units (RU). […] For the SPR analysis of the point mutants, binding to PNPase was measured at four different concentrations (0, 12.5, 25, and 50 nM). All concentrations were run in duplicates. The contact time was 60 s, while the dissociation time was 120 s, at a […] flow rate. […] The chip surface was regenerated with 350 mM EDTA in water, following manufacturer's instructions. Data were processed using the manufacturer’s BIAevaluation software.
# [2] = SEC-MALLS molar mass of PNPase and PNPase/RNase E complexes; type: physicochemical
# Description: Estimation of molar masses of PNPase and the various PNPase/RNase E complexes was carried out by size-exclusion chromatography with multi-angle laser light scattering (SEC-MALLS). Proteins (100 μl at ∼1 mg/ml concentration) were loaded onto a Superdex 200 10/300 Increase GL SEC column (GE Healthcare) at 0.5 ml/min using an AKTA Purifier FPLC system ([…]). Chromatograms were acquired using UNICORN software (GE Healthcare) at 280 nm. The eluent from the S200 column was analysed with an online DAWN HELEOS II MALLS instrument with eight detectors (Wyatt Technology), followed by an Optilab T-rEX differential refractometer (Wyatt Technology) at 25°C. Data collection and analysis were performed using ASTRA 6 software (Wyatt Technology). Eluted peaks from SEC column were evaluated by Zimm Plot, using a dn/dc value of 0.1850 ml/g. Bovine serum albumin was used as a standard to confirm the system performance (Supplementary Table S1).
# [3] = target: B1; assay: SEC-MALS; Superdex 200 10/300 Increase, 100 µl at ~1 mg/ml, 25°C; buffer A (50 mM Tris pH 7.5, 100 mM NaCl, 100 mM KCl, 0.01% w/v b-DDM, 1 mM TCEP) or B (A without b-DDM) as Table S2 tells for each sample; the 1:1 ratio is one RNase E segment to one PNPase trimer (expected mass = trimer plus one segment); details: both partners purified
# [4] = target: the molecule itself; assay: as above
# [5] = Superdex 200, 25°C, buffer B: A w/o bDDM
molecule,measurement,setting,value
GAAGGHTATHHASAAPARPQPVE [RNase E 1039-1061],KD range in words,[1]; listed as RNase E peptide 1039–1061,micromolar range
same,KD range in words,[1]; listed as residues 1039–1061,low μM range
"RNase E 511-1061 (domain or fragment, E. coli, UniProt P21513 511-1061, looked up, The construct is described nowhere in the methods) ALPSEEEFAERKRPEQPALATFAMPDVPPAPTPAEPAAPVVAPAPKAAPATPAAPAQPGLLSRFFGALKALFSGGEETKPTEQPAPKAEAKPERQQDRRKPRQNNRRDRNERRDTRSERTEGSDNREENRRNRRQAQQQTAETRESRQQAEVTEKARTADEQQAPRRERSRRRNDDKRQAQQEAKALNVEEQSVQETEQEERVRPVQPRRKQRQLNQKVRYEQSVAEEAVVAPVVEETVAAEPIVQEAPAPRTELVKVPLPVVAQTAPEQQEENNADNRDNGGMPRRSRRSPRHLRVSGQRRRRYRDERYPTQSPMPLTVACASPELASGKVWIRYPIVRPQDVQVEEQREQEEVHVQPMVTEVPVAAAIEPVVSAPVVEEVAGVVEAPVQVAEPQPEVVETTHPEVIAAAVTEQPQVITESDVAVAQEVAEQAEPVVEPQEETADIEEVVETAEVVVAEPEVVAQPAAPVVAEVAAEVETVAAVEPEVTVEHNHATAPMTRAPAPEYVPEAPRHSDWQRPTFAFEGKGAAGGHTATHHASAAPARPQPVE",Mn number-averaged solute molar mass,[2]; [5],"63,870 Da"
same,Mw weight-averaged solute molar mass,[2]; [5],"64,020 Da"
same,Difference Mn from expected mass,"[2]; buffer B, expected: trimer:RNase E 1:1 ratio for complexes",4.4%
same,stoichiometry N,[3],1
B1,stoichiometry N,[4],3
"E. coli PNPase core, lacking S1 and KH domains (domain or fragment, UniProt P05055 1-552, looked up, polynucleotide phosphorylase (PNPase), E. coli, core aa 1-552 by the methods (1-550 in the results), without the KH and S1 domains; The results and a legend give 1-550 for the core, the methods 1-552; source: E. coli Evo21(DE3), purified (Ni-NTA, intein cleavage, butyl, Q, SEC); not shown: Mycobacterium xenopi GyrA intein, C-terminal, cleaved; His8, C-terminal, cleaved) MLNPIVRKFQYGQHTVTLETGMMARQATAAVMVSMDDTAVFVTVVGQKKAKPGQDFFPLTVNYQERTYAAGRIPGSFFRREGRPSEGETLIARLIDRPIRPLFPEGFVNEVQVIATVVSVNPQVNPDIVAMIGASAALSLSGIPFNGPIGAARVGYINDQYVLNPTQDELKESKLDLVVAGTEAAVLMVESEAQLLSEDQMLGAVVFGHEQQQVVIQNINELVKEAGKPRWDWQPEPVNEALNARVAALAEARLSDAYRITDKQERYAQVDVIKSETIATLLAEDETLDENELGEILHAIEKNVVRSRVLAGEPRIDGREKDMIRGLDVRTGVLPRTHGSALFTRGETQALVTATLGTARDAQVLDELMGERTDTFLFHYNFPPYSVGETGMVGSPKRREIGHGRLAKRGVLAVMPDMDKFPYTVRVVSEITESNGSSSMASVCGASLALMDAGVPIKAAVAGIAMGLVKEGDNYVVLSDILGDEDHLGDMDFKVAGSRDGISALQMDIKIEGITKEIMQVALNQAKGARLHILGVMEQAINAPRGDISEFA",stoichiometry N,[4],3
